In assay [1] the target is nonsulfated human cationic trypsin purified from E. coli (human). Description: equilibrium binding assay; equilibrium dissociation constant of ecotin on human trypsins, 15 h of incubation; further conditions not told for ecotin.
Assay [2] concerns the target native sulfated human cationic trypsin purified from pancreatic juice (human). The description is as above.

Broadly, the Kd is the concentration at which binding is half-saturated. Turning to “ecotin (from UniProt P23827 21-162) (natural protein)”, the equilibrium dissociation constant (Kd) in assay [1] came to 8.1 pM; in assay [2], 5.6 pM.

For the origin of these results see article PMC7949130.
